This is an account of results in patent US7662584, “Increased production of secreted proteins by recombinant eukaryotic cells” (Danisco US Inc.).

Holding throughout (details): tags: N-terminal MBP (malE), pMAL-p2X, E. coli; label: 32P-dCTP Klenow fill-in
Data set [1] deals with T1, HAC1-malE fusion (HAC1 DNA binding domain and leucine zipper fragment) (Trichoderma reesei, UniProt Q8TFF3 SEQ:84-203).
T1 chain: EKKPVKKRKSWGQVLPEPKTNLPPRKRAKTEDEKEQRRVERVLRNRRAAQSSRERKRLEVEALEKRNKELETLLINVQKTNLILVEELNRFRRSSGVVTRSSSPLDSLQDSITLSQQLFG
As to the kind of experiment: EMSA; competed by excess unlabelled oligo; 10 mM MgCl2, 50 mM KCl, pH 6.9, poly(dIdC), 25 C. The procedure:
(§1) FIG. 16 depicts bandshift experiments, where the binding of the malE-HAC1 fusion protein to the putative UPR element sequences found in *T. reesei* pdi1 and bip1 promoters was tested. The oligonucleotides used in the binding reactions are shown on the top. Lanes 1, 12 and 16, no protein; lanes 2, 4-7, 8-11. 13-15 and 17-19. malE-HAC1 fusion protein; lane 3. malE protein alone. The binding was competed with unlabelled oligonucleotides on lanes 5 (20× excess); lanes 6, 10, 14 and 18 (50× excess) and lanes 7, 11, 15, and 19 (200× excess). Alignment of the UPR element sequences that bind the HAC1-malE protein is shown below wherein the sequence of pdiUPREII is set forth in SEQ ID No: 61, the sequence of bipUPREI is set forth in SEQ ID No. 62, and the sequence of bipUPREII is set forth in SEQ ID No. 63.
(§2) The oligonucleotides used in binding reactions were annealed in the concentration of […] in 50 mM Tris, pH 8.0, 10 mM MgCl_2, 1 mM spermidine and 5 mM DTT by heating them at 65° C. for 10 minutes and letting them cool down to room temperature during 2 hours. The oligonucleotides were labelled by incubating 100 ng of the annealed oligonucleotide in 10 mM Tris, pH 8.0, 5 mM MgCl_2 with 20 μCi of ^32P-dCTP and 2.5 U Klenow polymerase (Boehringer Mannheim) at 37° C. for 30 minutes. […]
(In EMSA bound probe runs differently from free probe, usually more slowly.)

Data set [2] has as its target T1, HAC1-malE fusion (HAC1 DNA binding …). Description: EMSA; specific binding; 10 mM MgCl2, 50 mM KCl, pH 6.9, poly(dIdC), 25 C. The procedure:
as §1
The oligonucleotides used in binding reactions were annealed in the concentration of […] in 50 mM Tris, pH 8.0, 10 mM MgCl_2, 1 mM spermidine and 5 mM DTT by heating them at 65° C. for 10 minutes and letting them cool down to room temperature during 2 hours. The oligonucleotides were labelled by incubating 100 ng of the annealed oligonucleotide in 10 mM Tris, pH 8.0, 5 mM MgCl_2 with 20 μCi of ^32P-dCTP and 2.5 U Klenow polymerase (Boehringer Mannheim) at 37° C. for 30 minutes. The binding reactions between the oligonucleotides having the putative UPR elements and the proteins were carried out with 0.5-2 μg of the HAC1-malE fusion protein or 2 μg of the malE protein and 1 ng of the annealed and labelled oligonucleotide in a mixture containing 20 mM HEPES, pH 6.9, 50 mM KCl, 10 mM MgCl_2, 0.25 mM EDTA, 0.5 mM DTT, 2% Ficoll, 5% glycerol and 100 μg/ml poly(dIdC) DNA. The competing oligonucleotides were used in 20-200 times excess of the labelled oligonucleotide. The binding eaction mixtures were incubated for 30 minutes at 25° C. and run in a 5% polyacrylamide gel with 10% glycerol in 12.5 mM Tris-borate, pH 8.3, 0.6 mM EDTA for three hours. The gel was dried on a filter paper and exposed onto an X-ray film.

Data set [3] has the same target. As to the kind of experiment: EMSA; no binding at all; 10 mM MgCl2, 50 mM KCl, pH 6.9, poly(dIdC), 25 C. The procedure:
as §1, §2

B1: pdiUPREI+II (dsDNA)
DNA 1: CGGCTGAACCAGCGCGGCAGCCAGATGTGGCCAAAGGG
DNA 2: CCCTTTGGCCACATCTGGCTGCCGCGCTGGTTCAGCCG
B1: the binding result in data set [1] was “binds”.

B2: bipUPREII (dsDNA)
DNA 1: GGGCGTGGAGAAGCGAGAAGTGGCCTCTTCTTCTCC
DNA 2: GGAGAAGAAGAGGCCACTTCTCGCTTCTCCACGCCC
On to B2, for which the binding result in data set [2] is reported as “binds”.

B3: pdiUPREI (dsDNA)
DNA 1: GGTACCTGCTAACCAGCGCGGCATGATTCAAC
DNA 2: GTTGAATCATGCCGCGCTGGTTAGCAGGTACC
B3: the binding result in data set [3] was “no binding”.

B4: bipUPREI (dsDNA)
DNA 1: GGATTAGAAAACGCCAACGTGTCCATAACGGTC
DNA 2: GACCGTTATGGACACGTTGGCGTTTTCTAATCC
As to B4, the binding result in data set [2] is listed as “binds”.

B5: pdiUPREII (dsDNA)
DNA 1: GGATCTTGCATAGCCAGATGTGGCCTCGATTGACT
DNA 2: AGTCAATCGAGGCCACATCTGGCTATGCAAGATCC
On to B5, for which, in data set [2], the binding result is on record as “binds”.
